{"source": "paper PMC5493634", "about": "“Intermolecular steric inhibition of Ephexin4 is relieved by Elmo1” (Scientific Reports, 2017)", "proteins": {"B1": {"name": "Ephexin4 (full-length, wild type) (natural protein, UniProt Q5VV41 1-709, looked up)", "chain": "MAQRHSDSSLEEKLLGHRFHSELRLDAGGNPASGLPMVRGSPRVRDDAAFQPQVPAPPQPRPPGHEEPWPIVLSTESPAALKLGTQQLIPKSLAVASKAKTPARHQSFGAAVLSREAARRDPKLLPAPSFSLDDMDVDKDPGGMLRRNLRNQSYRAAMKGLGKPGGQGDAIQLSPKLQALAEEPSQPHTRSPAKNKKTLGRKRGHKGSFKDDPQLYQEIQERGLNTSQESDDDILDESSSPEGTQKVDATIVVKSYRPAQVTWSQLPEVVELGILDQLSTEERKRQEAMFEILTSEFSYQHSLSILVEEFLQSKELRATVTQMEHHHLFSNILDVLGASQRFFEDLEQRHKAQVLVEDISDILEEHAEKHFHPYIAYCSNEVYQQRTLQKLISSNAAFREALREIERRPACGGLPMLSFLILPMQRVTRLPLLMDTLCLKTQGHSERYKAASRALKAISKLVRQCNEGAHRMERMEQMYTLHTQLDFSKVKSLPLISASRWLLKRGELFLVEETGLFRKIASRPTCYLFLFNDVLVVTKKKSEESYMVQDYAQMNHIQVEKIEPSELPLPGGGNRSSSVPHPFQVTLLRNSEGRQEQLLLSSDSASDRARWIVALTHSERQWQGLSSKGDLPQVEITKAFFAKQADEVTLQQADVVLVLQQEDGWLYGERLRDGETGWFPEDFARFITSRVAVEGNVRRMERLRVETDV", "notes": "Ephexin4, guanine nucleotide-exchange factor for RhoG; full-length; also called Epx4; Ephexin4-FLAG"}}, "biological_target": "the molecule itself", "test": "cross-linking; 293T cells transfected with Ephexin4-FLAG, cells incubated with or without 0.25 mM BMH (PBS pH 7.3, 5 mM EDTA) at room temperature for 1 h, then lysed; anti-FLAG immunoblot (Fig. 2d)"}
{"protein": "B1", "values": [{"measurement": "stoichiometry N", "result": 3}]}
